Source: paper PMC6693562 (Cell Reports, 2019)
Numbering of substitutions follows the chain as printed. In names and notes the source's numbering stands.

B1: MBP-OD^WT (human 53BP1 oligomerization domain, residues 1233-1288, fused to N-terminal maltose-binding protein) (domain or fragment, UniProt Q12888 1233-1288, looked up)
chain: GHVLHRHMRTIREVRTLVTRVITDVYYVDGTEVERKVTEETEEPIVECQECETEVS
B2: MBP-OD with mutation of D1256 (D1256A) (domain or fragment, human, UniProt Q12888 1233-1288, looked up)
chain: B1 chain with D24A

Biological target: the molecule itself
Experiment: SEC-RALS

Protein | stoichiometry N
B1 | 4
B2 | 2
